Test results taken from patent publication US20060078559A1 (EUROSCREEN S A, published 2006).
Blank lines part the entries; values can stand above or below the molecule they belong to. Where no end group is shown, it is not given here. [ ]: non-standard residue; d: D form. The star is where a group is joined. For = O=C*

What was measured:
[1] = target: T1, human formyl peptide receptor-like 2 (FPRL2) (human) (UniProt P25089); test: cell-based or functional assay
T1 sequence: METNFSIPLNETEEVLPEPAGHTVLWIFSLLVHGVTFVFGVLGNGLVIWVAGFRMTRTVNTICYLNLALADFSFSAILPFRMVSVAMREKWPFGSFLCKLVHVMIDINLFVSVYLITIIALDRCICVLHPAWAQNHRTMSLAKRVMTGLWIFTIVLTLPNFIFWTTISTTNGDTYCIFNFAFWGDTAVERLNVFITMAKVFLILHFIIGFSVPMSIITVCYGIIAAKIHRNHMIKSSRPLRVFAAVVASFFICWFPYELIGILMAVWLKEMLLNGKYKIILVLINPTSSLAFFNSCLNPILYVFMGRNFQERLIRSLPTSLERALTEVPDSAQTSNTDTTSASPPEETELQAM

[2] = target: T2, human formyl peptide receptor-like 2 (FPRL2) (human, UniProt P25089 1-353); test: binding assay on FPRL2-expressing CHO-K1 cells
T2 construct: Expressed on CHO-K1 cells with or without G alpha 16 and apoaequorin; Also detected on monocyte-derived dendritic cells; also called FPR-like 2; FPRL2 receptor
T2 sequence: T1 sequence

[3] = target: T2, human formyl peptide receptor-like 2 …; test: cell-based or functional assay
[4] = target: T3, human FPRL1 (FPR-like 1) (human, UniProt P25090 1-351); test: cell-based or functional assay
T3 sequence: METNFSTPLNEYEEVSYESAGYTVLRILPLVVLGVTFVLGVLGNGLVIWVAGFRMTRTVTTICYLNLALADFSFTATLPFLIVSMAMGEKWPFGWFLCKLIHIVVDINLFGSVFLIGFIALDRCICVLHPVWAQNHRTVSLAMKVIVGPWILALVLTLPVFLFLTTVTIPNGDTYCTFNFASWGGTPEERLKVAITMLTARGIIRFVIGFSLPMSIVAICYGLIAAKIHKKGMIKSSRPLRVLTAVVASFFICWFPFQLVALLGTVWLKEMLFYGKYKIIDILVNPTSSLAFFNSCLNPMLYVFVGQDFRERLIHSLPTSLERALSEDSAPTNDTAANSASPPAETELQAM

[5] = target: T4, human FPR (formyl peptide receptor) (human, UniProt P21462 1-350); test: cell-based or functional assay
T4 chain: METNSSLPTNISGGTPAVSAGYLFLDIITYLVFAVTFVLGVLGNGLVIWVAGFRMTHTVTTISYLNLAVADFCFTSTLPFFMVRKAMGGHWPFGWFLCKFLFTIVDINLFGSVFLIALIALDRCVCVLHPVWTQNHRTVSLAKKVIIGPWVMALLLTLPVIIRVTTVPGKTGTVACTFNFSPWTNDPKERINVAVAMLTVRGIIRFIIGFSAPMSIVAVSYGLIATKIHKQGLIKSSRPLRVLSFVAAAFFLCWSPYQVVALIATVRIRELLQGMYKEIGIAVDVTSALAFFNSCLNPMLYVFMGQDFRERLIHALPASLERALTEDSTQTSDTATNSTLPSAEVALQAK

[6] = target: T2, human formyl peptide receptor-like 2 …; test: competition binding on FPRL2-expressing CHO-K1 cells, tracer F2L-[125I]Tyr
Description: (§1) FPRL2, FPRL1 and FPR-expressing CHO-K1 cells were plated in 24 wells plates (200,000 cells per well for FPRL2, and 100,000 cells per well for the two other receptors). The next day, the cells were washed twice with a KRH buffer containing 280 mM saccharose and, for FPRL1 and FPR, 0.1% NaN₃. […] Cells were washed twice with ice cold buffer, total radioactivity was recovered with 1 M NaOH and counted in a gamma counter for 2 min.
The EC50 and IC50 parameters of the dose-response curves were determined by non-linear regression using the Graphpad Prism software. The results represent the mean pEC50 or pIC50 (−Log values of EC50 or IC50 expressed in Mol/L) ± s.e.m. for at least three independent experiments (n).

[7] = target: T4, human FPR (formyl peptide receptor); test: competition radioligand binding on FPR-expressing CHO-K1 cells, tracer [125I]-WKYMVm
Description: as §1

[8] = target: T3, human FPRL1 (FPR-like 1); test: competition radioligand binding on FPRL1-expressing CHO-K1 cells, tracer [125I]-WKYMVm
Description: as §1

[9] = target: T3, human FPRL1 (FPR-like 1); test: cell-based or functional assay; remark: listed apart in the source
[10] = target: T4, human FPR (formyl peptide receptor); test: cell-based or functional assay
[11] = target: T3, human FPRL1 (FPR-like 1); test: cell-based or functional assay; remark: listed apart in the source
[12] = target: T4, human FPR (formyl peptide receptor); test: cell-based or functional assay
[13] = target: T1, human formyl peptide receptor-like 2 (FPRL2) (human); test: competition binding on FPRL2-expressing CHO-K1 cells, tracer F2L-[125I]Tyr

- EC50, aequorin-based functional assay (native fraction A1) [1]: 200 nM
Molecule: A1, about 6 kD peptide of porcine heme-binding protein purified from porcine spleen (from UniProt P80015)

- pEC50 (aequorin assay) [3]: < 6 -Log of EC50 in Mol/L
- pEC50 (cAMP assay) [3]: < 6 -Log of EC50 in Mol/L
- pEC50 (aequorin assay) [9]: 9.27 -Log of EC50 in Mol/L
- pEC50 (cAMP assay) [9]: 9.23 -Log of EC50 in Mol/L
- pEC50 (aequorin assay) [10]: < 6 -Log of EC50 in Mol/L
- pEC50 (cAMP assay) [10]: < 6 -Log of EC50 in Mol/L
- EC50 (read off the curve), aequorin luminescence [FPRL1] [4]: ~0.5 nM
- EC50 (read off the curve), inhibition of cAMP accumulation [FPRL1] [11]: ~0.7 nM
- pIC50 (binding assay) [6]: < 6 -Log of IC50 in Mol/L
Molecule: MLWRRKIGPQMTLSHAAG (also called CCL23-derived SHAAG peptide) [SHAAG peptide derived from CCL23 N-terminus]

More lines, now with the values behind:

B1: F2L[7-21] (peptide)
peptide: NSLFGSVETWPWQVL
notes: Synthetic; also called [7-21]F2L; truncated F2L variant lacking the first six aminoacids
- binding result [2]: no binding

B2: WKYMVm (peptide)
peptide: WKYMV[dM]
notes: Bought from Phoenix Pharmaceuticals; also called W-hexapeptide; synthetic W peptide
- pEC50 (aequorin assay) (-Log of EC50 in Mol/L) [1]: < 6
- pEC50 (cAMP assay) (-Log of EC50 in Mol/L) [1]: < 6
- pEC50 (aequorin assay) [3]: < 6 -Log of EC50 in Mol/L
- EC50 (read off the curve), aequorin luminescence [FPRL1] [4]: ~0.04 nM
- EC50 (read off the curve), aequorin luminescence [FPR] [5]: ~0.7 nM
- pIC50 (binding assay) [6]: < 6 -Log of IC50 in Mol/L
- IC50 (read off the curve) [7]: ~70 nM
- IC50 (read off the curve) [8]: ~20 nM

Molecule: For-Met-Leu-Phe [FMLP (formyl-methionine-leucyl-phenylalanine)]
- pEC50 (aequorin assay) (-Log of EC50 in Mol/L) [1]: < 6
- pEC50 (cAMP assay) (-Log of EC50 in Mol/L) [1]: < 6
- pEC50 (aequorin assay) [9]: 5.94 -Log of EC50 in Mol/L
- pEC50 (cAMP assay) [9]: < 6 -Log of EC50 in Mol/L
- pEC50 (aequorin assay) [10]: 9.39 -Log of EC50 in Mol/L
- pEC50 (cAMP assay) [10]: 10.2 -Log of EC50 in Mol/L
- EC50 (read off the curve), aequorin luminescence [FPR] [5]: ~0.7 nM
- EC50 (read off the curve), inhibition of cAMP accumulation [FPR] [12]: ~0.1 nM
- pIC50 (binding assay) (-Log of IC50 in Mol/L) [13]: < 6
